# Where two headings read alike, the source gives them in different places.
# Experiments:
# [1] = molecular target: binding of SNA to plasma VWF (Sambucus nigra, UniProt Q41358); settings: for Inhibition of binding of SNA to plasma VWF: plasma VWF:Ag 5 mU/mL
# [2] = molecular target: T1, Sambucus nigra agglutinin (SNA) (Sambucus nigra, UniProt Q41358); settings: mean of six tests, human plasma pool = 100%
# [3] = molecular target: T1, Sambucus nigra agglutinin (SNA); settings: plasma pool 2.88-0.18 mU VWF:Ag/mL; rVWF 311-19 mU/mL
# [4] = test system: Maackia amurensis agglutinin (MAA); assay: MAA binding of plasma VWF and rVWF after neuraminidase treatment; settings: for Binding to MAL after addition of neuraminidase: neuraminidase 1-20 mU/mL
# Source text: In order to confirm that the recombinant protein did express sialic acid moieties, but in a different configuration than the plasma derived sialic acid, a binding assay that measures binding of protein to α2,3-linked neuraminic acid is used to detect the recombinantly expressed α2,3-linked neuraminic acid on the recombinant protein. The lectin, Maackia amurensis agglutinin (MAA), which binds α2,3-linked neuraminic acid, was used to determine if desialylation of rVWF occurred in the presence of neuraminidase.
# Anti-vWF plates were prepared as above. Both the human plasma pool and the rVWF preparation were diluted to obtain VWF:Ag concentrations of 5 mU/mL and 2.5 mU/mL. 100 μL/well of the sample dilutions were loaded to the coated, periodate-oxidized plates and incubated for 60 minutes at RT and washed afterwards. The neuraminidase digest was then carried out on the plate. Neuraminidase (Sigma) was used at the concentrations of 0, 1, 5, 10 and 20 mU/mL. Afterwards, the plates were washed and incubated with the biotinylated MAA (Vector, 1 μg/mL) for 60 minutes at RT. The incubation was terminated by washing, after which the plates were incubated 30 minutes at RT with streptavidin peroxidase (DakoCytomation, 1/4000). After a final washing step, the bound peroxidase was measured as previously described.
# [5] = molecular target: T1, Sambucus nigra agglutinin (SNA); settings: for Change of SNA binding after neuraminidase treatment: neuraminidase 0-20 mU/mL, 2 hours 37° C.
# Sequence of binding of SNA to plasma VWF (Q41358 309-570 limits assumed): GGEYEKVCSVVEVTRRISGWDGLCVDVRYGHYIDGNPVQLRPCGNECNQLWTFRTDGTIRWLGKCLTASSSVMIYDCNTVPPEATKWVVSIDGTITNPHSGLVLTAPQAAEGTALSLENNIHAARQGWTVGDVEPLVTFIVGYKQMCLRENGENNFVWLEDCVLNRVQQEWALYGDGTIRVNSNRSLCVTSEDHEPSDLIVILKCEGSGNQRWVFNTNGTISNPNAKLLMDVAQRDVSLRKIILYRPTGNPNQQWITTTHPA
# Sequence of binding of SNA to plasma VWF (Q41358 29-289 partner limits assumed): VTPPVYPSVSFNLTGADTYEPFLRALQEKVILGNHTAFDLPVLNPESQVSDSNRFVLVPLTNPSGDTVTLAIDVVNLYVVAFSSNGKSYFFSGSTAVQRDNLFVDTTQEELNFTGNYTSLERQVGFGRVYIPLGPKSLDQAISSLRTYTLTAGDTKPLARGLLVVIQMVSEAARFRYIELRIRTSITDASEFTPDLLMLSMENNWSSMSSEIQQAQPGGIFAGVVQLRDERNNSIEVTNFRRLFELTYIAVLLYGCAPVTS
molecule,measurement,setting,value
CC(=O)N[C@H]1[C@H]([C@H](O)[C@H](O)CO)O[C@@](OC[C@H]2O[C@@H](O[C@H]3[C@H](O)[C@@H](O)[C@H](O)O[C@@H]3CO)[C@H](O)[C@@H](O)[C@H]2O)(C(=O)O)C[C@@H]1O [6′-sialyllactose],Inhibition of binding of SNA to plasma VWF,[1]; 10 μM,approximately 25%
same,Inhibition of binding of SNA to plasma VWF,[1]; 100 μM,~75%
CC(=O)N[C@H]1[C@H]([C@H](O)[C@H](O)CO)O[C@@](O[C@H]2[C@@H](O)[C@@H](CO)O[C@@H](O[C@H]3[C@H](O)[C@@H](O)C(O)O[C@@H]3CO)[C@@H]2O)(C(=O)O)C[C@@H]1O (some centres unmarked) [3′-sialyllactose],Effect on binding of SNA to plasma VWF,[1]; assay as in Example 5,no effect
"plasma VWF: plasma derived von Willebrand factor, measured in a human plasma pool",SNA binding Mean (SNA binding measured),"[2]; Example 7, 0 U rVWF spiked",137.2%
same,SNA binding Mean (SNA binding found),"[2]; Example 8, 0 rVWF spiked",123.5%
same,SNA binding,[3],clear dose dependent relation
same,Binding to MAL after addition of neuraminidase,[4],abolished
same,Change of SNA binding after neuraminidase treatment,[5]; VWF:Ag 5 and 2.5 mU/mL,reduced proportional to the concentration of the neuraminidase applied
same,SNA binding relative to initially measured,[5]; neuraminidase 20 mU/mL,less than 95%
CHO cell-derived rVWF: recombinantly produced von Willebrand factor from Chinese hamster ovary (CHO) cells,SNA binding,[3],no binding
same,Binding to MAL after addition of neuraminidase,[4],abolished
same,MAA lectin binding,[4]; without neuraminidase,bound
same,Change of SNA binding after neuraminidase treatment,[5]; VWF:Ag 5 and 2.5 mU/mL,not altered
same,SNA binding,"[5]; without neuraminidase, VWF:Ag 5 and 2.5 mU/mL",no binding
